Reference: the supplement of paper PMC9732359
± gives the uncertainty stated by the source.

Experiment: protein stability index of a GFP-peptide fusion (yeast GPS) (PSI 1-4); higher = more stable; sorted into four equal gates, so the index is relative within each strain
Procedure, shortened: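 Tiled yeast protein peptides of 17 residues were each joined downstream of GFP, on plasmids that also express Cherry. The pooled library was maintained in yeast, and mid-log cultures in leucine-free medium were sorted into four equal gates on the GFP/Cherry ratio. Plasmids from every gate were amplified by PCR and sequenced on Illumina, with barcodes linking reads to strains. The protein stability index of a peptide is its gate-number-weighted read frequency summed over the gates.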

Row | Sequence | protein stability index (doa10∆) | protein stability index (pdr5∆) | protein stability index (san1∆) | protein stability index (ubr1∆)
1 | YGPPGTGKTLLARACAA [RPT5] | 2.5 ± 0.13 | 2.53 ± 0.081 | 2.29 ± 0.18 | –
2 | IRCHREDCDLVIMALML [POP5] | 2.45 ± 0.053 | 2.65 ± 0.064 | 2.01 ± 0.091 | 2.81 ± 0.047
3 | DVNDVLTKYIRSKNLIF [GRR1] | 2.68 ± 0.066 | 2.78 ± 0.08 | 2.19 ± 0.083 | 2.68 ± 0.043
4 | NEDLEDGHYIEENSQGN [REC8] | – | 3.37 ± 0.27 | – | –
5 | KKNNKIKESSKKIKGKS [SRP21] | 3.07 ± 0.1 | – | 3.26 ± 0.052 | –
6 | CEKWAASSWAKKIAQRE [RPL14A] | 2.35 ± 0.089 | 3.16 ± 0.12 | 2.24 ± 0.17 | 2.06 ± 0.062
7 | GSSAGMNGRSLTYAQQQ [SNF6] | 2.99 ± 0.083 | 3.15 ± 0.081 | 3.03 ± 0.058 | 3.24 ± 0.044
8 | IKNLPADVSKLMYSITF [SRB2] | 2.41 ± 0.054 | 2.95 ± 0.046 | 2.38 ± 0.049 | 2.76 ± 0.047
9 | NVEEEQIVPYIEKLTDG [BRR2] | 3.05 ± 0.061 | 3.06 ± 0.06 | 2.91 ± 0.071 | 3.2 ± 0.061
10 | NFARQLLFNNDFPLLKV [RRP40] | 2.91 ± 0.05 | 2.02 ± 0.049 | 2.06 ± 0.08 | 2.12 ± 0.037
11 | SWYLNTFDGIRMSSEEV [GRR1] | 2.73 ± 0.061 | 2.1 ± 0.059 | 2.13 ± 0.066 | 2.27 ± 0.043
12 | LLTCYELEKKYHGNECE [SRB8] | 2.71 ± 0.082 | 3 ± 0.061 | 3.3 ± 0.068 | 3.21 ± 0.055
13 | NQSSFNFGNNGAGGLNP [YOR098C/NUP1] | 3.15 ± 0.069 | 3.1 ± 0.076 | 3.2 ± 0.045 | 3.25 ± 0.064
14 | RVKIANTSAATVHTATS [SSN2] | 2.86 ± 0.1 | 2.65 ± 0.051 | 2.39 ± 0.071 | 2.52 ± 0.094
15 | NASANSTSFSFNAPATG [YOR098C/NUP1] | 2.99 ± 0.049 | 2.94 ± 0.051 | 3.05 ± 0.046 | 2.96 ± 0.033
16 | ISMILRNISFSDNNSRI [SWI1] | 3.02 ± 0.06 | 2.86 ± 0.059 | 2.77 ± 0.058 | 3.08 ± 0.04
17 | ANHDDQDDIDEMVENSS [SRP68] | 3.1 ± 0.1 | 3.2 ± 0.11 | 3.14 ± 0.095 | 3.13 ± 0.07
18 | IVERETNWIIYPLWVMA [CSN12] | 2.81 ± 0.19 | 3.42 ± 0.24 | 2.76 ± 0.24 | –
19 | GRICRPLIIVSDGQSRV [RET1] | 2.06 ± 0.045 | 2.11 ± 0.037 | 1.75 ± 0.059 | 2.16 ± 0.038
20 | VWFSHPRRFGKGSRQCR [RPS29B] | 3.02 ± 0.1 | 3.21 ± 0.065 | 3.44 ± 0.091 | 3.23 ± 0.071
21 | KRLLGTAFKSSPFGGSS [RPS23A] | 2.22 ± 0.043 | 2.61 ± 0.045 | 2.33 ± 0.055 | 2.23 ± 0.034
22 | DTFDGSDLRVLSGSISE [FAS1] | 1.6 ± 0.079 | 2.34 ± 0.067 | 1.49 ± 0.14 | 1.79 ± 0.059
23 | LYDALEPSDLRSWTLTS [YGL100W/SEH1] | 2.82 ± 0.048 | 2.79 ± 0.046 | 2.78 ± 0.038 | 3.03 ± 0.049
24 | RFVIWTEAAFTKLDQVW [RPL4A] | 3.18 ± 0.11 | 2.39 ± 0.096 | 2.28 ± 0.24 | 2.39 ± 0.13
25 | GVARNFHFAIEQISNNS [SIN4] | 2.8 ± 0.1 | 2.13 ± 0.075 | 2.08 ± 0.064 | 2.97 ± 0.062
26 | ENHNKGKLWKDVKARIA [QCR9] | 2.77 ± 0.14 | 3.07 ± 0.19 | 3 ± 0.13 | 2.83 ± 0.12

Row | Sequence | protein stability index (doa10∆) | protein stability index (pdr5∆) | protein stability index (san1∆) | protein stability index (ubr1∆)
27 | EKVRDYENSISKDLRSV [IRR1] | 2.25 ± 0.093 | 1.98 ± 0.094 | 1.82 ± 0.082 | 2.03 ± 0.051
28 | PPQLANQQQPPQDILSK [SNF11] | 2.26 ± 0.055 | 2.87 ± 0.069 | 2.41 ± 0.065 | 2.69 ± 0.052
29 | NILNMSMNNDFQQQQQQ [PGD1] | 2.68 ± 0.078 | 3.04 ± 0.084 | 2.83 ± 0.066 | 2.67 ± 0.071
30 | SSLFLDGLEKAAFNGVT [FAS2] | 2.3 ± 0.06 | 2.12 ± 0.062 | 2.02 ± 0.092 | 2.88 ± 0.063
31 | MAFQKDAKSSAYSSRFQ [RPL5] | 2.67 ± 0.11 | 2.89 ± 0.072 | 3.02 ± 0.061 | 2.92 ± 0.064
32 | KLAFGLTKLNEDDLVGV [TAF14] | 2.94 ± 0.092 | 3.15 ± 0.072 | 3.25 ± 0.054 | 3 ± 0.057
33 | NECIASTSNALKVLSGD [SNF12] | 2.89 ± 0.059 | 2.86 ± 0.07 | 2.86 ± 0.05 | 2.79 ± 0.062
34 | LAFAKLVHSEYLINGKR [SRP68] | 2.18 ± 0.11 | 2.5 ± 0.056 | 2.15 ± 0.082 | 2.53 ± 0.034
35 | SRIRVKIEGCISQVSSI [RPB7] | 1.6 ± 0.1 | 1.75 ± 0.083 | 1.64 ± 0.11 | 1.76 ± 0.074
36 | NDVTNKNINIGKHSQEQ [SIR4] | 2.26 ± 0.052 | 2.46 ± 0.047 | 2.81 ± 0.045 | 2.5 ± 0.041
37 | STMTEPVKQSFIRKYIN [GAL11] | 2.56 ± 0.082 | 2.2 ± 0.065 | 1.96 ± 0.092 | 2.47 ± 0.053
38 | TDDSFEDKVFASKGRTK [BRN1] | – | 2.74 ± 0.099 | 2.93 ± 0.13 | 2.29 ± 0.18
39 | PYAIIKGKARLGTLVNQ [RPL8B] | 1.83 ± 0.058 | 1.99 ± 0.06 | 1.28 ± 0.063 | 2 ± 0.053
40 | DMLKYKEDEPVVARRSN [ITC1] | 2.96 ± 0.1 | 2.42 ± 0.098 | 1.84 ± 0.084 | 1.76 ± 0.063
41 | HLSYCSNLTIYPIYELL [GRR1] | 2.54 ± 0.071 | 2.87 ± 0.1 | 3.17 ± 0.062 | 3.06 ± 0.074
42 | VYINPSGEKIDFLLSDW [BRR2] | 1.61 ± 0.1 | 2.49 ± 0.097 | 3.22 ± 0.12 | 2.38 ± 0.073
43 | YLREDQMIDTSILPTRD [NUT1] | 3.21 ± 0.069 | 2.98 ± 0.068 | 2.94 ± 0.072 | 2.42 ± 0.048
44 | RLGSKKLVEIIWNDVVY [YJL039C/NUP192] | 3.4 ± 0.17 | 3.43 ± 0.12 | 3.46 ± 0.082 | 3.35 ± 0.08
45 | GRRISENGQRDLDRIAA [RPS19A] | 3.76 ± 0.25 | 3.42 ± 0.14 | 3.4 ± 0.064 | 3.45 ± 0.17
46 | LLIATNLKEYNKFMSIF [SRB8] | 1.64 ± 0.051 | 1.82 ± 0.089 | 2.17 ± 0.2 | 1.94 ± 0.086
47 | ILTPESQLKKTKAQQKT [RPL7B] | 2.86 ± 0.095 | 2.89 ± 0.11 | 2.91 ± 0.076 | 2.86 ± 0.048
48 | PSILEDSLENNEGVPSP [FAS1] | 3.29 ± 0.23 | 2.79 ± 0.22 | 3.22 ± 0.17 | 3.14 ± 0.2
49 | THEQWSNIQRNVLFLRL [SRP72] | 2.67 ± 0.062 | 2.38 ± 0.062 | 1.96 ± 0.077 | 2.45 ± 0.041
50 | IDDRDYVGNKRLELAGQ [RET1] | 3.22 ± 0.15 | 3.47 ± 0.11 | 3.05 ± 0.12 | 3.58 ± 0.13
51 | SRPATTTRNGFMEAQGA [FAS2] | 2.28 ± 0.049 | 2.18 ± 0.046 | 2.48 ± 0.065 | 2.21 ± 0.039
52 | LAFKKNEMLLKRVTKVK [MTW1] | 1.77 ± 0.065 | 2.03 ± 0.052 | 2.31 ± 0.12 | 2.03 ± 0.035
